Experimental findings from patent US20250059559A1 (FLAGSHIP PIONEERING INNOVATIONS V, published 2025) are described below.

Data set [1] deals with the molecule itself. The experiment in a line: self-assembly; negative-stain EM.
Data set [2] concerns the molecule itself. Nature of the data set: self-assembly; heparin and SEC purification, EM.
Data set [3] concerns the molecule itself. The experiment in a line: self-assembly; EM.

B1: Ring 2 ORF1 fused to an N-terminal HIS6-tag (HIS-ORF1) (other)
chain: MPYYYRRRRYNYRRPRWYGRGWIRRPFRRRFRRKRRVRPTYTTIPLKQWQPPYKRTCYIKGQDCLIYYSNLRLGMNSTMYEKSIVPVHWPGGGSFSVSMLTLDALYDIHKLCRNWWTSTNQDLPLVRYKGCKITFYQSTFTDYIVRIHTELPANSNKLTYPNTHPLMMMMSKYKHIIPSRQTRRKKKPYTKIFVKPPPQFENKWYFATDLYKIPLLQIHCTACNLQNPFVKPDKLSNNVTLWSLNTISIQNRNMSVDQGQSWPFKILGTQSFYFYFYTGANLPGDTTQIPVADLLPLTNPRINRPGQSLNEAKITDHITFTEYKNKFTNYWGNPFNKHIQEHLDMILYSLKSPEAIKNEWTTENMKWNQLNNAGTMALTPFNEPIFTQIQYNPDRDTGEDTQLYLLSNATGTGWDPPGIPELILEGFPLWLIYWGFADFQKNLKKVTNIDTNYMLVAKTKFTQKPGTFYLVILNDTFVEGNSPYEKQPLPEDNIKWYPQVQYQLEAQNKLLQTGPFTPNIQGQLSDNISMFYKFYFKWGGSPPKAINVENPAHQIQYPIPRNEHETTSLQSPGEAPESILYSFDYRHGNYTTTALSRISQDWALKDTVSKITEPDRQQLLKQALECLQISEETQEKKEKEVQQLISNLRQQQQLYRERIISLLKDQ
notes: also called Ring 2 HIS-ORF1; not shown: N-terminal HIS6-tag
Consider B1, for which, in data set [1], the binding result is given as “binds”.

B2: untagged Ring2 ORF1 (other)
chain: B1 chain
notes: also called LY2 ORF1
As to B2, the binding result in data set [2] was “binds”.

B3: Ring 10 ORF1 fused to an N-terminal HIS6-tag (HIS-ORF1) (other)
chain: MPWWYRRRSYNPWRRRNWFRRPRKTIYRRYRRRRRWVRRKPFYKRKIKRLNIVEWQPKSIRKCRIKGMLCLFQTTEDRLSYNFDMYEESIIPEKLPGGGGFSIKNISLYALYQEHIHAHNIFTHTNTDRPLARYTGCSLKFYQSKDIDYVVTYSTSLPLRSSMGMYNSMQPSIHLMQQNKLIVPSKQTQKRRKPYIKKHISPPTQMKSQWYFQHNIANIPLLMIRTTALTLDNYYIGSRQLSTNVTIHTLNTTYIQNRDWGDRNKTYYCQTLGTQRYFLYGTHSTAQNINDIKLQELIPLTNTQDYVQGFDWTEKDKHNITTYKEFLTKGAGNPFHAEWITAQNPVIHTANSPTQIEQIYTASTTTFQNKKLTDLPTPGYIFITPTVSLRYNPYKDLAERNKCYFVRSKINAHGWDPEQHQELINSDLPQWLLLFGYPDYIKRTQNFALVDTNYILVDHCPYTNPEKTPFIPLSTSFIEGRSPYSPSDTHEPDEEDQNRWYPCYQYQQESINSICLSGPGTPKIPKGITAEAKVKYSFNFKWGGDLPPMSTITNPTDQPTYVVPNNFNETTSLQNPTTRPEHFLYSFDERRGQLTEKATKRLLKDWETKETSLLSTEYRFAEPTQTQAPQEDPSSEEEEESNLFERLLRQRTKQLQLKRRIIQTLKDLQKLE
notes: also called Ring 10 HIS-ORF1; not shown: N-terminal HIS6-tag
Take B3: the binding result in data set [1] is listed as “binds”.

B4: full-length Ring 10 ORF1 (residues 1-672) (other)
chain: B3 chain
notes: also called Ly1 ORF1; full-length ORF1
Regarding B4, the binding result in data set [1] is given as “binds”.

B5: Ring 10 ORF1 delARM delCTD (residues 2-45 and 552-672 deleted) (other)
chain: MKIKRLNIVEWQPKSIRKCRIKGMLCLFQTTEDRLSYNFDMYEESIIPEKLPGGGGFSIKNISLYALYQEHIHAHNIFTHTNTDRPLARYTGCSLKFYQSKDIDYVVTYSTSLPLRSSMGMYNSMQPSIHLMQQNKLIVPSKQTQKRRKPYIKKHISPPTQMKSQWYFQHNIANIPLLMIRTTALTLDNYYIGSRQLSTNVTIHTLNTTYIQNRDWGDRNKTYYCQTLGTQRYFLYGTHSTAQNINDIKLQELIPLTNTQDYVQGFDWTEKDKHNITTYKEFLTKGAGNPFHAEWITAQNPVIHTANSPTQIEQIYTASTTTFQNKKLTDLPTPGYIFITPTVSLRYNPYKDLAERNKCYFVRSKINAHGWDPEQHQELINSDLPQWLLLFGYPDYIKRTQNFALVDTNYILVDHCPYTNPEKTPFIPLSTSFIEGRSPYSPSDTHEPDEEDQNRWYPCYQYQQESINSICLSGPGTPKIPKGITAEAKVKYSFNFKWGGDLPPMST
notes: also called Ring 10 delARM delCTD
With B5, the binding result in data set [1] is reported as “binds”.

B6: Ring2 ORF1 with a deletion of the C-terminus amino acids 611-666 (pRTx-2652), Ring2 AnelloVLP (other)
chain: MPYYYRRRRYNYRRPRWYGRGWIRRPFRRRFRRKRRVRPTYTTIPLKQWQPPYKRTCYIKGQDCLIYYSNLRLGMNSTMYEKSIVPVHWPGGGSFSVSMLTLDALYDIHKLCRNWWTSTNQDLPLVRYKGCKITFYQSTFTDYIVRIHTELPANSNKLTYPNTHPLMMMMSKYKHIIPSRQTRRKKKPYTKIFVKPPPQFENKWYFATDLYKIPLLQIHCTACNLQNPFVKPDKLSNNVTLWSLNTISIQNRNMSVDQGQSWPFKILGTQSFYFYFYTGANLPGDTTQIPVADLLPLTNPRINRPGQSLNEAKITDHITFTEYKNKFTNYWGNPFNKHIQEHLDMILYSLKSPEAIKNEWTTENMKWNQLNNAGTMALTPFNEPIFTQIQYNPDRDTGEDTQLYLLSNATGTGWDPPGIPELILEGFPLWLIYWGFADFQKNLKKVTNIDTNYMLVAKTKFTQKPGTFYLVILNDTFVEGNSPYEKQPLPEDNIKWYPQVQYQLEAQNKLLQTGPFTPNIQGQLSDNISMFYKFYFKWGGSPPKAINVENPAHQIQYPIPRNEHETTSLQSPGEAPESILYSFDYRHGNYTTTALSRISQDWALKDTVSK
notes: also called Ring2 delCterm (Δ611-666) (7047); Ring2 AnelloVLP 2652
B6: in data set [3], the binding result is “binds”.
